From the supplement of paper PMC10567573

B1: CLK3 (parent)
chain: FGEDYYGPSRSRHRRRSRERGPYR

Variants of: B1
Assay: protein stability index of a GFP-peptide fusion (GPS, HEK-293T) (PSI 1-6); higher = more stable
Details: c terminus: a fixed tail appended
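Also: lentivirally expressed fusions sorted by FACS into six bins by GFP to DsRed ratio, PSI derived from sequencing read proportions per bin multiplied by bin number.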

Variant	protein stability index
Y6A	4.61
Y6C	4.75
Y6D	4.59
Y6E	4.84
Y6F	2.4
Y6G	5.15
Y6H	4.07
Y6I	4.38
Y6K	5.1
Y6L	3.98
Y6M	4.17
Y6N	4.47
Y6P	4.78
Y6Q	5.36
Y6R	4.67
Y6S	4.96
Y6T	4.27
Y6V	4.02
Y6W	2.52
G7A	3.32
G7C	2.95
G7D	3.27
G7E	4.32
G7H	2.07

Variant	protein stability index
G7I	4.23
G7K	3.71
G7L	2.96
G7M	3.06
G7N	2.06
G7Q	2.82
G7R	3.07
G7S	3.25
G7T	3.53
G7V	4.13
G7W	2.06
G7Y	2.78
P8A	1.71
P8C	2.48
P8D	1.92
P8E	2.56
P8F	1.74
P8G	2.3
P8H	1.61
P8I	2.19
P8K	1.58
P8L	1.51
P8N	2.32
P8Q	1.59

Variant	protein stability index
P8R	1.44
P8S	2.38
P8T	2.61
P8V	1.42
P8W	1.53
P8Y	2.99
S9A	2.39
S9C	2.35
S9D	2.84
S9E	2.73
S9F	2.21
S9G	3.16
S9H	2.33
S9I	2.47
S9K	2.74
S9L	2.55
S9M	1.69
S9N	2.82
S9P	2.56
S9Q	2.63
S9R	3
S9T	2.58
S9V	2.38
S9W	2.17

Variant	protein stability index
S9Y	2.56
R10A	2.9
R10C	2.45
R10D	2.75
R10E	3.36
R10F	2.31
R10G	3.15
R10H	3.62
R10I	2.64
R10K	2.58
R10L	3.03
R10M	3.16
R10N	2.63
R10P	2.82
R10Q	2.7
R10S	3
R10T	2.41
R10V	2.52
R10W	2.85
R10Y	2.12
S11A	2.97
S11C	2.95
S11D	2.57
S11E	2.02

Variant	protein stability index
S11F	2.76
S11G	2.58
S11H	3.12
S11I	2.56
S11K	3.18
S11L	1.92
S11M	2.13
S11N	2.21
S11P	3.1
S11Q	2.65
S11R	2.53
S11T	2.86
S11V	2.35
S11W	2.3
S11Y	2.99
R12A	2.13
R12D	1.86
R12E	2.58
R12F	2.18
R12G	2.16
R12H	2.51
R12I	1.95
R12K	3.19
R12L	1.48

Variant	protein stability index
R12M	2.03
R12N	2.52
R12P	2.39
R12Q	2.31
R12S	2.1
R12T	2.27
R12V	2.11
R12W	2.44
R12Y	2.58
H13A	2.16
H13C	2.29
H13D	2.16
H13E	2.21
H13F	2.64
H13G	2.46
H13I	2.78
H13K	3.53
H13L	2.18
H13M	3.25
H13N	2.55
H13P	2.96
H13Q	2.48
H13S	2.52
H13T	2.7

Variant	protein stability index
H13V	2.16
H13W	1.93
H13Y	2.52
R14A	1.88
R14C	1.85
R14D	2.31
R14E	2.66
R14F	2.83
R14G	2.62
R14H	2.44
R14I	2.41
R14K	3.03
R14L	2.27
R14M	2.13
R14N	2.89
R14P	2.08
R14Q	2.25
R14S	2.19
R14T	2.42
R14V	2.22
R14W	3.15
R14Y	2.02
R15A	2.18
